In patent US20050026838A1:

B1: Fibroblast Growth Factor 13 (recombinant human FGF-13, expressed in Escherichia coli) (ligand)
chain: MQGENHPSPNFNQYVRDQGAMTDQLSRRQIREYQLYSRTSGKHVQVTGRRISATAEDGNKFAKLIVETDTFGSRVRIKGAESEKYICMNKRGKLIGKPSGKSKDCVFTEIVLENNYTAFQNARHEGWFMAFTRQGRPRQASRSRQNQREAHFIKRLYQGQLPFPNHAEKQKQFEFVGSAPTRRTKRTRRPQPLT

Molecular target: [125I]-FGF-1 binding sites on membranes prepared from adult rat cortex
Experiment: displacement of [125I]-FGF-1 by unlabelled FGF, membranes prepared from adult rat cortex

Molecule | IC50 [nM]
FGF-2 (basic FGF) (from UniProt P09038 143-288) (ligand) | 0.2
B1 | 1
